Data reported in patent US20240139295A1 (priority 2021, published 2024).

B1: LysP53: lysin from the genome of bacteriophage P53, amino acid sequence SEQ ID NO: 2, includes P104, about 24 kDa, expressed in E. coli (protein)
chain: MTMTTKRIFEHMRPNLTDSQVQALYKLMEKGADLDTIAQFAGVSPLVSTADVKQPSGFKFSQTSLKRLEGVNPKLVQVVNRALEISKEDFMVIEGVRTKESAWANWGKGRTAAQCQAAGVPTKYAQPSLAKVTWLTDPLKSKHMTGHAVDLAPIPLDWNDLKRFDLMAQAMFQASAELNIPIRWGADWDNDGVFREKGETDSPHFELAG

Experiments:
Gram-negative bacteria [1] = assay: Activity comparison of P104 and LysP53 in vitro, overall; assay type: cell-based; conditions: stable phase, 37° C., 1 h
Experimental: (§1) A variety of strains including Acinetobacter baumannii, Pseudomonas aeruginosa, Klebsiella pneumoniae and Escherichia coli are cultured to stable phase (OD600nm between 1.2-1.4), respectively, and each precipitate is collected by centrifugation at 4° C., rinsed once with Tris-HCl buffer, and then the rinsed precipitate is dissolved in Tris-HCl buffer to obtain the bacterial solution. At the same time, mixed solutions including the same amount of the buffer and the above bacterial solution are prepared and used as the negative controls. After incubation at 37° C. for 1 h, the number (CFU) of the bacteria in the solutions are counted by plating on agar plates.

A. baumannii WHG40137 [2] = assay: Time dependence of lysin LysP53 lysing A. baumannii WHG40137 (CFU plate count); assay type: cell-based, Acinetobacter baumannii; conditions: 100 μg/mL LysP53, logarithmic phase, 37° C.
Experimental: Acinetobacter baumannii (A. baumannii) WHG40137 is cultured to logarithmic phase (OD600nm between 0.4-0.6), and the precipitate is collected by low-temperature centrifugation, rinsed once with Tris-hydrochloride (Tris-HCl) buffer, and then the rinsed precipitate is dissolved in the buffer to obtain an A. baumannii WHG40137 bacterial solution. The lysin LysP53 prepared in the embodiment 2 is added in and mixed with the A. baumannii WHG40137 bacterial solution to make the final concentration of the lysin LysP53 to be 100 micrograms per milliliter (μg/mL). At the same time, a mixed solution including the same amount of the buffer and the above bacterial solution is prepared and used as negative control. During incubation of the solutions at 37° C., aliquots were sampled, respectively, at different times and used to count the number (colony-forming unit abbreviated as CFU) of the bacteria in the solutions by plating on agar plates.

A. baumannii WHG40137 [3] = assay: Lytic activity of LysP53 against A. baumannii WHG40137 at different growth periods (CFU plate count); assay type: cell-based, Acinetobacter baumannii; conditions: 100 μg/mL LysP53, 37° C., 1 h; logarithmic phase (OD600 0.4-0.6) vs stable phase (OD600 1.2-1.4)
Experimental: A. baumannii WHG40137 is cultured to logarithmic phase (OD600nm between 0.4-0.6) or stable phase (OD600nm between 1.2-1.4) first. Then, the precipitates are collected by centrifugation at 4° C., rinsed once with Tris-HCl buffer, and dissolved in Tris-HCL buffer to obtain an A. baumannii WHG40137 bacterial solution. Finally, the lysin LysP53 prepared in the embodiment 2 is taken and mixed with the A. baumannii WHG40137 bacterial solution to make the final concentration of the lysin LysP53 to be 100 μg/mL. At the same time, a mixed solution including the same amount of the buffer and the above bacterial solution is prepared and used as the negative control. After incubation at 37° C. for 1 h, the number (CFU) of the bacteria in the solutions are counted by plating on agar plates.

A. baumannii WHG40137 [4] = assay: Effect of pH on lytic activity of LysP53 against A. baumannii WHG40137 (CFU plate count); assay type: cell-based, Acinetobacter baumannii; conditions: 100 μg/mL LysP53, logarithmic phase, 1 h
Experimental: A. baumannii WHG40137 is cultured to logarithmic phase (OD600nm between 0.4-0.6) first. Then, the precipitates are collected by centrifugation at 4° C., rinsed once with Tris-HCl buffer, and dissolved in Tris-HCL buffer with different pH values (pH 5-8) to obtain A. baumannii WHG40137 bacterial solutions. Finally, the lysin LysP53 prepared in the embodiment 2 is taken and mixed with the A. baumannii WHG40137 bacterial solutions to make the final concentration of the lysin LysP53 to be 100 μg/mL. At the same time, mixed solutions including the same amount of the buffer and the above bacterial solution are prepared and used as the negative controls. After incubation at 37° C. for 1 h, the number (CFU) of the bacteria in the solutions are counted by plating on agar plates.

Acinetobacter baumannii [5] = assay: Lysis spectrum of LysP53 in vitro (CFU plate count); assay type: cell-based; conditions: 100 μg/mL LysP53, stable phase, 37° C., 1 h
Experimental: (§2) A variety of strains including Acinetobacter baumannii, Pseudomonas aeruginosa, Klebsiella pneumoniae and Escherichia coli are cultured to stable phase (OD600nm between 1.2-1.4), respectively, and each precipitate is collected by centrifugation at 4° C., rinsed once with Tris-HCl buffer, and then the rinsed precipitate is dissolved in Tris-HCl buffer to obtain the bacterial solution. The lysin LysP53 prepared in the embodiment 2 is taken and mixed with the above bacterial solutions, respectively, to make the final concentration of the lysin LysP53 to be 100 μg/mL. At the same time, mixed solutions including the same amount of the buffer and each of the above bacterial solutions are prepared and used as negative controls. After incubation at 37° C. for 1 h, the number (CFU) of the bacteria in the solutions are counted by plating on agar plates.

Escherichia coli [6] = assay: as above; assay type: cell-based; conditions: 100 μg/mL LysP53, stable phase, 37° C., 1 h
Experimental: as §2

Klebsiella pneumoniae [7] = assay: as above; assay type: cell-based; conditions: 100 μg/mL LysP53, stable phase, 37° C., 1 h
Experimental: as §2

Pseudomonas aeruginosa [8] = assay: as above; assay type: cell-based; conditions: 100 μg/mL LysP53, stable phase, 37° C., 1 h
Experimental: as §2

Gram-negative bacteria [9] = assay: Lysis spectrum of LysP53 in vitro, overall; assay type: cell-based; conditions: 100 μg/mL LysP53, stable phase, 37° C., 1 h
Experimental: as §2

A. baumannii WHG40137 [10] = assay: Effect of EDTA concentration on lytic activity of LysP53 against A. baumannii WHG40137 (CFU plate count); assay type: cell-based, Acinetobacter baumannii; conditions: 100 μg/mL LysP53, stable phase, EDTA 0, 62.5, 125, 250, 500 μM, 37° C., 1 h
Experimental: A. baumannii WHG40137 is cultured to stable phase (OD600nm between 1.2-1.4), and the precipitate is collected by centrifugation at 4° C., rinsed once with a Tris-HCl buffer, and is dissolved in Tris-HCl buffer to obtain an A. baumannii WHG40137 bacterial solution. The lysin LysP53 prepared in the embodiment 2 is taken and mixed with the A. baumannii WHG40137 bacterial solution containing EDTA at different concentrations (0 μM, 62.5 μM, 125 μM, 250 μM, and 500 μM) to make the final concentration of the lysin LysP53 to be 100 μg/mL. At the same time, mixed solutions including the same amount of the Tris-HCl buffer solution and each of the above bacterial solutions are used as negative controls. After incubation at 37° C. for 1 h, the number (CFU) of the bacteria in the solutions are counted by plating on agar plates.

A. baumannii WHG40137 [11] = assay: Lytic activity of LysP53 against A. baumannii WHG40137 on burned skin surfaces of mice; assay type: in vivo, Acinetobacter baumannii; conditions: female BALB/c mice, burn site infected 24 h, 14 μg LysP53 topical vs 4 grams (g) minocycline, 4 h after treatment
Experimental: Female BALB/c mice aged 6-8 weeks are anesthetized by intraperitoneal injection of 40 milligrams per kilogram (mg/kg) pentobarbital (also referred to as pentobarbitone), and then shaved with an electric razor to remove 2 square centimeters (cm 2) of hair on the back. Partial burn can be achieved by exposing the naked skin to water at 65° C. for 12 s. 10 μL, of A. baumannii WHG40137 with a concentration of 10^8 CFU/mL is taken and inoculated at the burn site, and after colonization for 24 h, the mice are randomly divided into three groups. In the first group, there are 12 mice, and 14 μg of the lysin LysP53 is applied to the burn site of each mouse. In the second group, there are 12 mice, and 4 grams (g) minocycline is applied to the burn site of each mouse. In the third group, there are 9 mice, and the same amount of buffer solution is applied to the burn site of each mouse. Four hours after treatment, the mice are euthanatized and the infected skin is excised, infiltrated with 1 mL of phosphate buffered saline with Tween® 20 (PBST) and 0.1% Triton X-100 for 2 min, and homogenized with a tissue cell disruptor (NewZongKe, Wuhan, China). Finally, an aliquot of the suspension is diluted and plated to an LB plate containing 4 μg/mL of gentamicin and 2 μg/mL of meropenem, and the number of the colonies are counted after overnight culture.

Acinetobacter baumannii [12] = assay: Activity comparison of P104 and LysP53 in vitro (CFU plate count); assay type: cell-based; conditions: stable phase, 37° C., 1 h
Experimental: as §1

Escherichia coli [13] = assay: as above; assay type: cell-based; conditions: stable phase, 37° C., 1 h
Experimental: as §1

Klebsiella pneumoniae [14] = assay: as above; assay type: cell-based; conditions: stable phase, 37° C., 1 h
Experimental: as §1

Pseudomonas aeruginosa [15] = assay: as above; assay type: cell-based; conditions: stable phase, 37° C., 1 h
Experimental: as §1

Row | Molecule | lytic activity against Gram-negative bacteria (Gram-negative bacteria [1]) | lytic activity against Acinetobacter baumannii WHG40137 (A. baumannii WHG40137 [2]) | concentration of Acinetobacter baumannii WHG40137 after incubation for 15 min (A. baumannii WHG40137 [2]; Tris-HCl buffer, 15 min) | concentration of Acinetobacter baumannii WHG40137 after incubation for 1 h (A. baumannii WHG40137 [2]; Tris-HCl buffer, 1 h) | lytic activity in logarithmic phase versus stable phase (A. baumannii WHG40137 [3]) | lytic activity in pH range 5.0-6.5 versus pH range 7.0-8.0 (A. baumannii WHG40137 [4]; 37° C.) | concentration of the bacteria after incubation with LysP53 at pH 5.0-6.5 (A. baumannii WHG40137 [4]; pH 5.0-6.5, 37° C.) | lytic effect on a variety of Acinetobacter baumannii strains (Acinetobacter baumannii [5]) | lytic effect on Escherichia coli (Escherichia coli [6]) | lytic effect on Klebsiella pneumoniae (Klebsiella pneumoniae [7]) | lytic effect on Pseudomonas aeruginosa (Pseudomonas aeruginosa [8]) | spectrum in lysing Gram-negative bacteria (Gram-negative bacteria [9]) | lytic activity with increasing EDTA concentration (A. baumannii WHG40137 [10]) | lytic activity on mouse skin compared with minocycline (A. baumannii WHG40137 [11]) | lytic activity against Acinetobacter baumannii, LysP53 compared with P104 (Acinetobacter baumannii [12]) | activity against Escherichia coli, LysP53 compared with P104 (Escherichia coli [13]) | activity against Klebsiella pneumoniae, LysP53 compared with P104 (Klebsiella pneumoniae [14]) | activity against Pseudomonas aeruginosa, LysP53 compared with P104 (Pseudomonas aeruginosa [15])
1 | P104: antibacterial peptide found in the genome of bacteriophage P53, amino acid sequence SEQ ID NO: 1, chemically synthesized (MTMTTKRIFEHMRPNLTDSQVQALYKLMEKGAD) | broad-spectrum lytic activity | – | – | – | – | – | – | – | – | – | – | – | – | – | – | – | – | –
2 | B1 | broad-spectrum lytic activity | good lytic activity | greatly reduced | about 10 CFU/mL | higher lytic activity | better lytic activity | about 10 CFU/mL | good lytic effect | good lytic effect | good lytic effect | good lytic effect | broad spectrum | gradually higher | higher lytic activity | stronger lytic activity | comparable activity | comparable activity | comparable activity
